Laboratory results published in patent US20220160663A1 (SEOUL NATIONAL UNIVERSITY R AND DB FOUNDATION, published 2022).

Target: T1, Glut1 (accession number: NP_006507) WT, HA-tagged (UniProt P11166 1-492)
T1 construct: Expressed in THP-1 cells from a plasmid; Detected in the pull-down by anti-HA Western blot; also called WT Glut1; Glut-HA; not shown: HA tag
T1 sequence (looked up): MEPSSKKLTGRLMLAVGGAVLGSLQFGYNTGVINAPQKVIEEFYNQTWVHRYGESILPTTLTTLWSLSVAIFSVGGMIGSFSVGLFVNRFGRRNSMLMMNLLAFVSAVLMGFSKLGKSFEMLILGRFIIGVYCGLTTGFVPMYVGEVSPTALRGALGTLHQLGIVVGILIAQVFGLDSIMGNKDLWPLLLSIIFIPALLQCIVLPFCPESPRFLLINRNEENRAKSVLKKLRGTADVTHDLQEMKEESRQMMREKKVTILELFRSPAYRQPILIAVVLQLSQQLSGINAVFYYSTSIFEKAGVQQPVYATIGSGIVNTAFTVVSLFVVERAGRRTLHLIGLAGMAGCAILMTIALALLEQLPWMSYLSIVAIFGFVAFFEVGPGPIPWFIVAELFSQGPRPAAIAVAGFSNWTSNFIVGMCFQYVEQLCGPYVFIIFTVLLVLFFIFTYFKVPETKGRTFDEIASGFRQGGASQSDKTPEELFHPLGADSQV
Assay: Strep pull-down from THP-1 cell extract, anti-HA Western blot
Method: THP-1 cell line was transfected with expression plasmids for TM4SF5-Strep (control vector, WT, N-Glycosylation-deficient mutant; N138A/N155Q), Palmitoylation-deficient mutant (C2/6/9/75/76/80/81/85/189A), Glut1 (accession number: NP_006507) WT, Glut1 K38A, and Glut1 E329Q, and after 48 hours, cell extracts were obtained. The binding of TM4SF5 and Glut1 was confirmed by Western blotting of Glut-HA using an anti-HA antibody by pulling-down with strepavidin agarose resin (Thermo Fisher Scientific).

B1: TM4SF5-Strep N-Glycosylation-deficient mutant N138A/N155Q (other, human, UniProt O14894 1-197, looked up)
chain: MCTGKCARCVGLSLITLCLVCIVANALLLVPNGETSWTNTNHLSLQVWLMGGFIGGGLMVLCPGIAAVRAGGKGCCGAGCCGNRCRMLRSVFSSAFGVLGAIYCLSVSGAGLRNGPRCLMNGEWGYHFEDTAGAYLLARTLWDRCEAPPRVVPWQVTLFSLLVAASCLEIVLCGIQLVNATIGVFCGDCRKKQDTPH
notes: Expressed in THP-1 cells and pulled down from the cell extract with streptavidin agarose; not shown: Strep tag
binding result: no binding
